In patent US20110111454:

T1: IFNα2b[Tn]-FCHASE
T1 chain: VGVTETP


Biological target: T1, IFNα2b[Tn]-FCHASE

Protein | Specific Activity (mU/mg) on 1 mM IFNα2b[Tn]-FCHASE [mU/mg] | conversion of the glycopeptide acceptor by capillary electrophoresis
CgtBOH4384 (FL, N-terminal MalE) (protein) MFKISIILPTYNVEQYIARAIESCINQTFKDIEIIVVDDCGNDNSINIAKEYSKKDKRIKIIHNEKNLGLLRARYEGVKVANSPYIMFLDPDDYLELNACEECIKILDEQDEVDLVFFNAIVESNVISYKKFDFNSGFYSKKEFVKKIIAKKNLYWTMWGKLIRKKLYLEAFASLRLEKDVKINMAEDVLLYYPMLSQAQKIAYMNCNLYHYVPNNNSICNTKNEVLVKNNIQELQLVLNYLRQNYILNKYCSVLYVLIKYLLYIQIYKIKRTKLMVTLLAKINILTLKILFKYKKFLKQC | 83.5 | –
CgtB11168 (FL, N-terminal MalE) (protein) MSQISIILPTYNVEKYIARALESCINQTFKDIEIIVVDDCGNDKSIDIAKEYASKDDRIKIIHNEENLKLLRARYEGAKVATSPYIMFLDSDDYLELNACEECIKILDMGGGGKIDLLCFEAFITNAKKSIKKLNIKQGKYNNKEFTMQILKTKNPFWTMWAKIIKKDIYLKAFNMLNLKKEIKINMAEDALLYYPLTILSNEIFYLTQPLYTQHVNSNSITNNINSLEANIQEHKIVLNVLKSIKNKKTPLYFLIIYLLKIQLLKYEQNFNKRNINLIYYKINILYQKYQFKWKKFLYNLIP | – | ND^2 (For the CgtB enzyme from the 11168 only very low-level conversion was detectable on the glycopeptide acceptor by capillary electrophoresis <5%.)
